# Results from patent publication US20110294730A1, “METHOD OF TREATING GLAUCOMA AND INTRAOCULAR HYPERTENSION” (priority 2010, published 2011).
# Tested on: not given
# Test: not given
# Conditions: […] eye drops; cited from earlier work
row,Compound,miosis
1,CNC(=O)Oc1ccc2c(c1)[C@]1(C)CCN(C)[C@@H]1N2C [physostigmine sulphate],sustained miosis

# Tested on: not given
# Test: not given
# Conditions: patients treated with latanoprost; cited from earlier work
row,Compound,"increased iris pigmentation, share of patients [%]"
1,CC(C)OC(=O)CCC/C=C\C[C@@H]1[C@@H](CC[C@@H](O)CCc2ccccc2)[C@H](O)C[C@@H]1O [latanoprost],≤ 17

# Tested on: not listed separately
# Test: Curcumin eye drops, retinal damage due to glaucoma
# Format: in vivo
# Conditions: curcumin 1 to 5 percent in normal saline
# Description: We have used curcumin diluted in the normal saline from 1 to 5 percent after extracting it from turmeric using solvents such as DMSO and alcohol as well other known solvents. […] The sclera can be stained yellow that can be mistaken for jaundice. All the above antioxidants can be used with insulin as described above and there is no systemic reaction.
row,Compound,improving the retinal damage
1,COc1cc(/C=C/C(=O)CC(=O)/C=C/c2ccc(O)c(OC)c2)ccc1O [curcumin],very effective

# Tested on: not given
# Test: not given
# Conditions: in vivo; cited from earlier work
Compound,Effective duration of action [h],Maximum duration [h],Onset of Action,Peak action
NPH (isophane): intermediate-acting NPH (isophane) insulin,10 to 16,14 to 18,2 to 4 h,6 to 10 h
Insulin detemir [Insulin detemir (Levemir)],14,~20,3 to 4 h,6 to 8 h
Insulin aspart [Insulin aspart (NovoLog)],3 to 4,4 to 6,¼-½,½-1¼
Insulin lispro [Insulin lispro (Humalog)],3 to 4,4 to 6,¼-½,½-1¼
Insulin glargine [Insulin glargine (Lantus)],18 to 20,20 to 24,3 to 4 h,8 to 16 h
Insulin glulisine [Insulin glulisine (Apidra)],3 to 4,4 to 6,¼-½,½-1¼
Regular (soluble): short-acting regular (soluble) insulin,3 to 6,6 to 8,,2 to 3 h

# Tested on: trabecular meshwork
# Test: not given
# Conditions: cited from earlier work
row,Compound,extracellular acidification
1,TNF-a,significantly stimulated
2,FGF-1: exogenous growth factor,significantly stimulated
3,TGF-a: exogenous growth factor,significantly stimulated
4,EGF: exogenous growth factor,significantly stimulated
5,HGF: exogenous growth factor,significantly stimulated
6,IGF-1: insulin like growth factor,significantly stimulated
7,11-Ib: exogenous growth factor,significantly stimulated
